{"source": "patent US20220275038A1", "about": "(TOKYO MEDICAL UNIVERSITY, published 2022)", "key": {"[1]": {"target": "CLSPCOL (hybrid polypeptide of CLSP(1-61), MycHisG and the collagen-homologous region of adiponectin) (human)", "experiment": "cell-based or functional assay"}, "[2]": {"target": "CLSP(1-61)-MycHis (N-terminal region of CLSP, amino acid 1-61, C-terminally tagged with MycHis) (human) (UniProt Q9NZT1)", "experiment": "cell-based or functional assay"}, "[3]": {"target": "human CLSP-MycHis (calmodulin-like skin protein, C-terminally tagged with MycHis) (human) (UniProt Q9NZT1)", "experiment": "cell-based or functional assay"}, "[4]": {"target": "T1, apolipoprotein E4 C-terminally tagged with FLAG (overexpressed in F11 cells, immunoprecipitated with FLAG … (human, UniProt P02649 19-317))", "T1 construct": "also called ApoE4-FLAG; ApoE4; not shown: C-terminal FLAG tag", "T1 sequence (P02649 19-317 C130R limits assumed)": "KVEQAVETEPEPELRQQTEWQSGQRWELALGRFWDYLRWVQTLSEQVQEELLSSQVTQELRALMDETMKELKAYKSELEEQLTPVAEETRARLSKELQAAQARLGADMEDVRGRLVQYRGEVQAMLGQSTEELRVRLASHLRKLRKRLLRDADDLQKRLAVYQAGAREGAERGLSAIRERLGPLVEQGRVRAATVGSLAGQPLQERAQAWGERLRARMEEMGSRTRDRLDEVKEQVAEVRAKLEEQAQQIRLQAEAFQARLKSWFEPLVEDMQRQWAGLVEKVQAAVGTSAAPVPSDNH", "experiment": "pull-down with immunoprecipitated ApoE4-FLAG, immunoblot (FIG. 15 a, b)", "method": "(a, b) <Apolipoprotein E4 binds to the C-terminal region of CLSP> A schematic illustration of deletion mutants of CLSP is shown in (a). Apolipoprotein E4 (ApoE4) and adiponectin (ADN), C-terminally tagged with FLAG, were overexpressed in F11 neurohybrid cells by transfection. At 24 hours after the transfection, the cell lysates of F11 cells were prepared. For immunoprecipitation of ApoE4-FLAG and ADN-FLAG using the FLAG antibody, 300 μg of cell lysates was used. Recombinant CLSP-MycHis (FL-MH) or C-terminally MycHis-tagged CLSP deletion mutants produced in bacteria were purified. These immunoprecipitates and recombinant proteins were then subjected to SDS-PAGE and immunoblot analysis using the myc and FLAG antibodies (inputs). The ApoE4-FLAG and ADN-FLAG immunoprecipitates were mixed with recombinant CLSP-MycHis (FL-MH) or C-terminally MycHis-tagged CLSP deletion mutants and incubated at 4° C. overnight, followed by exhaustive washing. The pulled-down precipitates were then subjected to SDS-PAGE and immunoblotted using the myc and FLAG antibodies. (c) <CLSP binds to the collagen-homologous region of adiponectin> The collagen-homologous region of adiponectin (ADNCol), N-terminally tagged with 6×His and G(HisG), was produced in bacteria. In addition, CLSP-FLAG was overexpressed in F11 neurohybrid cells by transfection. […]"}, "[5]": {"target": "T1, apolipoprotein E4 C-terminally tagged …", "experiment": "pull-down of purified MycHis-tagged CLSP proteins with ApoE4-FLAG immunoprecipitated on M2 agarose beads, WB anti-myc [ApoE4 beads]"}, "[6]": {"target": "T2, recombinant human ApoE4 (PeproTech, cat. no. 350-04) (human, UniProt P02649 19-317)", "T2 construct": "also called apolipoprotein E4", "T2 sequence (P02649 19-317 C130R limits assumed)": "as above", "experiment": "plate coated with ApoE4, rising CLSP-HiBiT, chemiluminescence (Nano-Glo HiBiT), Scatchard analysis; ApoE4 on the plate", "method": "(§1) The dissociation constants (Kd) for the binding between CLSP and adiponectin, and between CLSP and ApoE4 were then measured (FIGS. 8b and c). For this purpose, adiponectin or ApoE4 protein was conjugated to the 96-well plates. Various concentrations of recombinant CLSP C-terminally tagged with HiBiT, a chemiluminescence producing tag, were added to the plates for simultaneous incubation. After washing, the amount of CLSP-HiBiT binding to adiponectin or ApoE4 on the wells was measured. The dissociation constant between adiponectin and CLSP or between ApoE4 and CLSP was measured to be 8.8 or 7.8 pM respectively by Scatchard analysis (FIG. 8c).\n(§2) The dissociation constant for the binding between ApoE4 (or adiponectin) and CLSP was measured using Nano-Glo HiBiT Extracellular Detection System (Promega, cat. no.: N2420) in accordance with the instruction. For the coating of recombinant ApoE4 or adiponectin, 100 μl of 50 mM carbonate buffer (pH 9.6) containing 20 pM ApoE4 or adiponectin was incubated overnight at 4° C. in the wells of 96-well plates (Fluorescence-use Black-type Plate H, cat. no.: MS-8596KZ, Sumitomo Bakelite Co., Ltd., Tokyo, Japan). The protein-coated plates were washed three times with 200 μl of PBS. Then, 150 μl of PBS containing 1% skim milk (GIBCO) was added to each well. […] Resulting chemiluminescence was measured for each well using Wallac ARVO™ X5 (Perkin Elmer). […]"}, "[7]": {"target": "T3, human adiponectin (BioVendor, cat. no. RD172029100) (human, UniProt Q15848 19-244, limits assumed)", "T3 construct": "Bought; also called ADN; wild-type adiponectin", "T3 sequence": "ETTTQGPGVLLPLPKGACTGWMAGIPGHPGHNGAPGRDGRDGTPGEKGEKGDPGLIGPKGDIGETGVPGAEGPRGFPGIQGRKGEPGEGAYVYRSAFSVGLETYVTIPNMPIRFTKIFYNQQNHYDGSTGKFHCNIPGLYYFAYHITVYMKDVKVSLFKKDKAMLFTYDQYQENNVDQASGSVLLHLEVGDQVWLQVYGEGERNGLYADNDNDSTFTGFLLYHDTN", "experiment": "plate coated with adiponectin, rising CLSP-HiBiT, chemiluminescence (Nano-Glo HiBiT), Scatchard analysis; adiponectin on the plate", "method": "as §1, §2"}, "[8]": {"target": "T3, human adiponectin (BioVendor, cat. no. …)", "experiment": "Scatchard analysis; wells coated with 20 pM adiponectin, stepwise CLSP-HiBiT, HiBiT chemiluminescence [plot ADN]", "method": "(§3) Dissociation constants were calculated by the Scatchard analysis using Prism7 software.\nas §1\nas §2, with “Japan).” for “Japan). The protein-coated plates were washed three times with 200 μl of PBS. Then, 150 μl of PBS containing 1% skim milk (GIBCO) was added to each well.”"}, "[9]": {"target": "T2, recombinant human ApoE4 (PeproTech, …)", "experiment": "Scatchard analysis; wells coated with 20 pM recombinant ApoE4, stepwise CLSP-HiBiT, HiBiT chemiluminescence [plot ApoE4]", "method": "as §3, §1\nas §2, with “Japan).” for “Japan). The protein-coated plates were washed three times with 200 μl of PBS. Then, 150 μl of PBS containing 1% skim milk (GIBCO) was added to each well.”"}}, "data": [{"molecule": "calreticulin", "values": [{"measurement": "inhibition of the cell death-suppressing activity of 100 pM CLSPCOL; concentration at which inhibition began", "setting": "[1]", "result": 1, "unit": "nM"}, {"measurement": "inhibition of the cell death-suppressing activity of CLSP1-61 (cell death assay, FIG. 19)", "setting": "[2]", "result": 10, "unit": "fold amount"}, {"measurement": "inhibition of the CLSP-mediated protection of V642I-APP-induced neuronal death; concentration for complete inhibition of 10 nM CLSP", "setting": "[3]", "result": 50, "unit": "nM"}]}, {"molecule": "recombinant GST-human 14-3-3σ (from UniProt P31947 1-248)", "values": [{"measurement": "inhibition of the cell death-suppressing activity of CLSP1-61 (cell death assay, FIG. 19)", "setting": "[2]", "result": 10, "unit": "fold amount"}, {"measurement": "inhibition of the CLSP-mediated protection of V642I-APP-induced neuronal death; concentration at which inhibition of 10 nM CLSP began", "setting": "[3]", "result": 10, "unit": "nM"}, {"measurement": "inhibition of the CLSP-mediated protection of V642I-APP-induced neuronal death; concentration for complete inhibition of 10 nM CLSP", "setting": "[3]", "result": 20, "unit": "nM"}]}, {"molecule": "CLSP(1-61)-MycHis (N-terminal region of CLSP, amino acid 1-61, C-terminally tagged with MycHis) (ligand, Made in bacteria; not shown: C-terminal MycHis tag) MAGELTPEEEAQYKKAFSAVDTDGNGTINAQELGAALKATGKNLSEAQLRKLISEVDSDGD", "values": [{"measurement": "binding result", "setting": "[4]", "result": "no binding"}]}, {"molecule": "TGKNLSEAQLRKLISEVDSDGD (also called mutants consisting of only EHR; not shown: C-terminal MycHis tag)", "values": [{"measurement": "binding result", "setting": "[5]", "result": "no binding"}]}, {"molecule": "CLSP-HiBiT (recombinant CLSP C-terminally tagged with HiBiT) (ligand, HiBiT oligonucleotides were put into pGEX-2T-CLSP at the SmaI-EcoRI site; Made 'in the same way' as CLSP-MycHis (GST fusion, thrombin release); also called GST-CLSP-HiBiT (precursor)) MAGELTPEEEAQYKKAFSAVDTDGNGTINAQELGAALKATGKNLSEAQLRKLISEVDSDGDGEISFQEFLTAAKKARAGLEDLQVAFRAFDQDGDGHITVDELRRAMAGLGQPLPQEELDAMIREADVDQDGRVNYEEFARMLAQEVSGWRLFKKIS", "values": [{"measurement": "Kd", "setting": "[6]", "result": 7.8, "unit": "pM"}, {"measurement": "Kd", "setting": "[7]", "result": 8.8, "unit": "pM"}, {"measurement": "Kd", "setting": "[8]", "result": 7.8, "unit": "pM"}, {"measurement": "Kd", "setting": "[9]", "result": 8.8, "unit": "pM"}]}]}
